Source: patent publication US20240002531A1 (ONO PHARMACEUTICAL, published 2024)
Read-outs that look alike come from different tables or passages of the source. Each block holds one binder with its values, some of them ahead of it.

Legend:
Experiment in all cases: peptide ELISA, OD 655 nm
[1] = molecular target: T1, HER2 peptide p603-622 (amino acids 603 to 622 of human HER2) (human)
T1 construct: Synthetic peptide; also called wild-type HER2 peptide
T1 peptide: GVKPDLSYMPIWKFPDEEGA

[2] = molecular target: T2, G603A peptide (HER2 603-622 with G603A) (human)
T2 peptide: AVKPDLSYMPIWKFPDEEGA

[3] = molecular target: T3, V604A peptide (HER2 603-622 with V604A) (human)
T3 peptide: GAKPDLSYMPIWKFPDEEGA

[4] = molecular target: T4, K605A peptide (HER2 603-622 with K605A) (human)
T4 peptide: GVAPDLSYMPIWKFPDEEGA

[5] = molecular target: T5, P606A peptide (HER2 603-622 with P606A) (human)
T5 peptide: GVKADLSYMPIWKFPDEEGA

[6] = molecular target: T6, D607A peptide (HER2 603-622 with D607A) (human)
T6 peptide: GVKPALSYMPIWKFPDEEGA

[7] = molecular target: T7, L608A peptide (HER2 603-622 with L608A) (human)
T7 peptide: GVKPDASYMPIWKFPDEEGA

[8] = molecular target: T8, S609A peptide (HER2 603-622 with S609A) (human)
T8 peptide: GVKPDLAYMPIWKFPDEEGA

[9] = molecular target: T9, Y610A peptide (HER2 603-622 with Y610A) (human)
T9 peptide: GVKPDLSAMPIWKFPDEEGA

[10] = molecular target: T10, M611A peptide (HER2 603-622 with M611A) (human)
T10 peptide: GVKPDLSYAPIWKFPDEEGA

[11] = molecular target: T11, P612A peptide (HER2 603-622 with P612A) (human)
T11 peptide: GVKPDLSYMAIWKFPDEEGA

[12] = molecular target: T12, I613A peptide (HER2 603-622 with I613A) (human)
T12 construct: also called 1613A
T12 peptide: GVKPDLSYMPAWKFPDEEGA

[13] = molecular target: T13, W614A peptide (HER2 603-622 with W614A) (human)
T13 peptide: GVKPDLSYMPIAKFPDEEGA

[14] = molecular target: T14, K615A peptide (HER2 603-622 with K615A) (human)
T14 peptide: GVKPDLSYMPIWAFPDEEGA

[15] = molecular target: T15, F616A peptide (HER2 603-622 with F616A) (human)
T15 peptide: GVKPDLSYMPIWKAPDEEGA

[16] = molecular target: T16, P617A peptide (HER2 603-622 with P617A) (human)
T16 peptide: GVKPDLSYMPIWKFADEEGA

[17] = molecular target: T17, D618A peptide (HER2 603-622 with D618A) (human)
T17 peptide: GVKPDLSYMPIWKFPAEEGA

[18] = molecular target: T18, E619A peptide (HER2 603-622 with E619A) (human)
T18 peptide: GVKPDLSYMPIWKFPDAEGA

[19] = molecular target: T19, E620A peptide (HER2 603-622 with E620A) (human)
T19 peptide: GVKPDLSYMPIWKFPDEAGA

[20] = molecular target: T20, G621A peptide (HER2 603-622 with G621A) (human)
T20 peptide: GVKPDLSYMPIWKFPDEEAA

[21] = molecular target: T21, HER2_604-622C peptide (NH2-VKPDLSYMPIWKFPDEEGAC-COOH) (human)
T21 construct: KLH was added for immunisation, the peptide itself was coated in the screening ELISA
T21 peptide: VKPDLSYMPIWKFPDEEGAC

[22] = molecular target: T1, HER2 peptide p603-622 (amino acids 603 …)
[23] = molecular target: T2, G603A peptide (HER2 603-622 with G603A)
[24] = molecular target: T3, V604A peptide (HER2 603-622 with V604A)
[25] = molecular target: T4, K605A peptide (HER2 603-622 with K605A)
[26] = molecular target: T5, P606A peptide (HER2 603-622 with P606A)
[27] = molecular target: T6, D607A peptide (HER2 603-622 with D607A)
[28] = molecular target: T7, L608A peptide (HER2 603-622 with L608A)
[29] = molecular target: T8, S609A peptide (HER2 603-622 with S609A)
[30] = molecular target: T9, Y610A peptide (HER2 603-622 with Y610A)
[31] = molecular target: T10, M611A peptide (HER2 603-622 with M611A)
[32] = molecular target: T11, P612A peptide (HER2 603-622 with P612A)
[33] = molecular target: T12, I613A peptide (HER2 603-622 with I613A)
[34] = molecular target: T13, W614A peptide (HER2 603-622 with W614A)
[35] = molecular target: T14, K615A peptide (HER2 603-622 with K615A)
[36] = molecular target: T15, F616A peptide (HER2 603-622 with F616A)
[37] = molecular target: T16, P617A peptide (HER2 603-622 with P617A)
[38] = molecular target: T17, D618A peptide (HER2 603-622 with D618A)
[39] = molecular target: T18, E619A peptide (HER2 603-622 with E619A)
[40] = molecular target: T19, E620A peptide (HER2 603-622 with E620A)
[41] = molecular target: T20, G621A peptide (HER2 603-622 with G621A)
[42] = molecular target: T21, HER2_604-622C peptide …

- binding result [1]: binds
- binding result [2]: binds
- binding result [3]: binds
- binding result [4]: binds
- binding result [5]: binds
- binding result [6]: binds
- binding result [7]: binds
- binding result [8]: binds
- binding result [9]: binds
- binding result [10]: binds
- binding result [11]: binds
- binding result [12]: binds
- binding result [13]: binds
- binding result [14]: no binding (tested: 10 ug/ml)
- binding result [15]: no binding (tested: 10 ug/ml)
- binding result [16]: binds
- binding result [17]: binds
- binding result [18]: binds
- binding result [19]: binds
- binding result [20]: binds
- binding result [21]: binds
B1: H2Mab-284 antibody (antibody, mouse IgG1, kappa, V domains shown)
VH: QVTLKESGPGILQPSQTLSLTCSFSGFSLSTSGVGVGWIRQPSGKGLEWLAHIWWDDDKNYNPALKSRLTISKDTSTNQGFLKIASVDTADTATYFCARIEGQKGFAYWGQGTLVTVSA
VL: DIVMSQSPSSLAVSVGEKVTMSCKSSQSLLYSRNQKNYLAWYQQKPGQSPKLLIYWASTRESGVPDRFTGSGSGTDFTLTISSVKAEDLAVYYCQQYYSSPYTFGGGTKLEIKR

- binding result [1]: binds
- binding result [2]: binds
- binding result [3]: binds
- binding result [4]: binds
- binding result [5]: binds
- binding result [6]: binds
- binding result [7]: binds
- binding result [8]: binds
- binding result [9]: binds
- binding result [10]: binds
- binding result [11]: binds
- binding result [12]: binds
- binding result [13]: binds
- binding result [14]: binds
- binding result [15]: binds
- binding result [16]: binds
- binding result [17]: binds
- binding result [18]: binds
- binding result [19]: binds
- binding result [20]: binds
- binding result [21]: binds
B2: H2Mab-285 antibody (antibody, mouse IgG3, V domains shown)
VH: EVQLVESGGGLVQPGGSLKLSCAASGFTFSNYGIFWVRQTPDKRLELVATVKSNGGSTYYPDSVKGRFTISRDNAKKTLYLQMSSLKSEDTAMYYCAREGGDYWGQGTSVTVSS
VL: DIVMTQSHKFMSTSVGDRVSITCKASQDVGTAVAWYQQKPGQSPKLLIYWTSTRHTGVPDRFTGSGSGTDFTLTIRNVQSEDLADYFCQQYNRNPLTFGAGTRLELKR

- binding result [22]: binds
- binding result [23]: binds
- binding result [24]: binds
- binding result [25]: binds
- binding result [26]: binds
- binding result [27]: binds
- binding result [28]: binds
- binding result [29]: binds
- binding result [30]: binds
- binding result [31]: binds
- binding result [32]: binds
- binding result [33]: binds
- binding result [34]: binds
- binding result [35]: binds
- binding result [36]: binds
- binding result [37]: binds
- binding result [38]: binds
- binding result [39]: binds
- binding result [40]: binds
- binding result [41]: binds
- binding result [42]: binds
B3: H2Mab-289 antibody (antibody, mouse IgG1, kappa, V domains shown)
VH: EVQLQQSGPELVKPGASVKISCKASGYSFTGFFMNWVMQSHGKSLEWIGRINPYNGDTFYNQKFNDKATLTVDKSSRTAHMDLRNLASEDSAVYYCATISGNYRGYAMDNWGQGTSVTVSS
VL: DVLMTQTPLSLPVSLGDQASISCRSSQTILHTNGNTYLEWYLQKPGQSPKLLIYKVSNRFSGVPDRFSGSGSGTDFTLKISRVEAEDLGVYYCFQGSRVPPTFGGGTKLEIKR
